Key:
BRCA1 230-534 [1] = target: T1, BRCA1 230-534 (UniProt P38398 230-534); assay: competition EMSA; 0.5 uM labelled linear duplex, 5 uM P1; 50 mM NaCl, 10 mM Tris-HCl pH 8.0, 0.5 mM EDTA, 1 mM DTT, 5% glycerol; 6% native PAGE in TAE at 4 C; incubation temperature not stated; details: protein: recombinant, tags: none stated (expressed from pET22b), label: 5'-32P when used as probe
p53 (GST fusion) [2] = target: T2, p53 (GST fusion) (UniProt P04637 1-393); assay: EMSA; 100-500 nM GST-p53, no BRCA1; 50 mM NaCl, 10 mM Tris-HCl pH 8.0, 0.5 mM EDTA, 1 mM DTT, 5% glycerol; 6% native PAGE in TAE at 4 C; incubation temperature not stated; details: protein: recombinant, tags: N-terminal GST, uncleaved (pGEX2TKp53), chain copies: 4, label: 5'-32P when used as probe
BRCA1 230-534 [3] = target: T1, BRCA1 230-534; assay: EMSA; 1-5 uM P1, 0.5 uM DNA; 50 mM NaCl, 10 mM Tris-HCl pH 8.0, 0.5 mM EDTA, 1 mM DTT, 5% glycerol; 6% native PAGE in TAE at 4 C; incubation temperature not stated; details: protein: recombinant; tags: none stated (expressed from pET22b); label: 5'-32P when used as probe; duplex
p53 (GST fusion) [4] = target: T2, p53 (GST fusion); assay: EMSA; 100-500 nM GST-p53, no BRCA1; no binding at 200 nM (lane 8); 50 mM NaCl, 10 mM Tris-HCl pH 8.0, 0.5 mM EDTA, 1 mM DTT, 5% glycerol; 6% native PAGE in TAE at 4 C; incubation temperature not stated; details: protein: recombinant; tags: N-terminal GST, uncleaved (pGEX2TKp53); chain copies: 4; label: 5'-32P when used as probe; four-way junction
[5] = duplex with C:C mismatches (design after triple lesions)

T1 sequence (P38398 230-534): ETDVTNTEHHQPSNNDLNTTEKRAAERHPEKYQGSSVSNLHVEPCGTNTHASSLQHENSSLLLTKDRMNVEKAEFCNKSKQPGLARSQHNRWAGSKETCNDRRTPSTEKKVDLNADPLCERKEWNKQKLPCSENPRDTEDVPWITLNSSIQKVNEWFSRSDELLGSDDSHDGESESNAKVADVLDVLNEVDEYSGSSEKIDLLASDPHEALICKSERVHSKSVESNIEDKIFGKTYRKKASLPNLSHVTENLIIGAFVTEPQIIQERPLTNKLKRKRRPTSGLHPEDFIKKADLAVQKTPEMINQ
T2 sequence (P04637 whole entry, the tested form may be a part): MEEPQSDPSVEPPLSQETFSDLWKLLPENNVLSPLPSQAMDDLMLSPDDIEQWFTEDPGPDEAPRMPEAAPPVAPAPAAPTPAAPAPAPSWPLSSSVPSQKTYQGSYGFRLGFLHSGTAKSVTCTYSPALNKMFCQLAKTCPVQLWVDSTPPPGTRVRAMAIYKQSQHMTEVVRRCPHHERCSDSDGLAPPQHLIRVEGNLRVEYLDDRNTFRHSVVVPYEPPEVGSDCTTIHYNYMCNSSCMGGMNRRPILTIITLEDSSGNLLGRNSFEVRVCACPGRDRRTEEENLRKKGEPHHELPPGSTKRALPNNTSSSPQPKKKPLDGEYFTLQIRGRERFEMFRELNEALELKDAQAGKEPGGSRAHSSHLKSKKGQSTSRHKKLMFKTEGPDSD

B1: C:C mismatch DNA (dsDNA)
DNA 1: CCCTCGGAGCACTGCACAACCCCTGGCCGCCG
DNA 2: CGGCGGCCAGCGGTTCTGCACTGCTCCGAGGG
- binding signal (BRCA1 230-534 [1]; [5]): 70 % reduction of P1 bound to labelled linear duplex at equimolar competitor
- binding result (p53 (GST fusion) [2]; [5]): no binding

B2: linear duplex DNA (dsDNA)
DNA 1: CCCTCGGAGCACTGCACAACCCCTGGCCGCCG
DNA 2: CGGCGGCCAGGGGTTGTGCAGTGCTCCGAGGG
- binding result (BRCA1 230-534 [3]): binds

B3: bulge containing DNA (dsDNA)
DNA 1: CACGCTAAGTCCGATGCGTGAGATCCGC
DNA 2: GCGGATCTCACGCGTATCGGACTTAGCGTG
- binding signal (BRCA1 230-534 [1]; duplex with bulge): 65 % reduction of P1 bound to labelled linear duplex at equimolar competitor
- binding result (p53 (GST fusion) [2]; duplex with bulge): no binding

B4: four-way junction DNA (structured_DNA)
DNA 1: AGATCTGGCGTTAGGTGATACCGATGCATC
DNA 2: CATGCATCGGTATCAGGCTTACGACTAGTG
DNA 3: CACTAGTCGTAAGCCACTCGTGCTGAATTC
DNA 4: GAATTCAGCACGAGTCCTAACGCCAGATCT
- binding signal (BRCA1 230-534 [1]; four-way junction): 91 % reduction of P1 bound to labelled linear duplex at equimolar competitor
- binding result (p53 (GST fusion) [4]): binds

Reference: publication PMC2396507, “Analysis of the DNA Binding Activity of BRCA1 and Its Modulation by the Tumour Suppressor p53”
